Test [1] deals with T1, huCD300LB-DAP12 fusion constitutively expressed on 293 Freestyle (Freestyle HEK) cells (human).
T1 construct: also called Human CD300LB-DAP12 chimera
The experiment in a line: flow cytometry, stable Freestyle HEK cells. The protocol:
(§1) Other members of the human CD300 family share sequence homology with human CD300LB. Thus, counter screens against binding of the anti-CD300LB antibodies to huCD300A, huCD300C, huCD300LD, huCD300E, huCD300LF, and huCD300G by stable overexpression in Freestyle HEK cells (generation of which is described above) were performed as follows. Cells were counted and labeled with 200 nM CFSE, 500 nM VioBlue, or a combination of the two to discriminate between CD300LB, Parental cells, and the other CD300 family members. Cells were washed thoroughly with PBS containing 2% fetal bovine serum then resuspended at a total of 240,000 cells per well. Hybridoma supernatants (100 L) or purified antibodies at various concentrations were added and incubated for one hour before the cells were washed twice again and stained with an APC-labeled anti-human or anti-mouse secondary antibody. Cells were then analyzed using a BD FACSCanto II. Anti-CD300LB antibodies were analyzed for specific binding to human CD300LB by FlowJo software by gating on live cells, then the APC geometric mean fluorescence intensity (gMFI) calculated for each labeled population. The results are shown in […]
(§2) Freestyle HEK cells were transfected with huCD300A, huCD300C, huCD300D, huCD300E, and huCD300G separately. Then, five stable cell lines from these transfections were pooled; the combined cells are herein known as CD300A/C/D/E/G. Freestyle HEK cells were also transfected with huCD300LB and huCD300F. All transfected cells were then tested for binding of anti-CD300LB antibodies of the present disclosure.

Test [2] deals with T2, huCD300F constitutively expressed on 293 Freestyle (Freestyle HEK) cells (human, UniProt Q8TDQ1 20-290).
T2 construct: also called huCD300LF; Human CD300F
T2 sequence: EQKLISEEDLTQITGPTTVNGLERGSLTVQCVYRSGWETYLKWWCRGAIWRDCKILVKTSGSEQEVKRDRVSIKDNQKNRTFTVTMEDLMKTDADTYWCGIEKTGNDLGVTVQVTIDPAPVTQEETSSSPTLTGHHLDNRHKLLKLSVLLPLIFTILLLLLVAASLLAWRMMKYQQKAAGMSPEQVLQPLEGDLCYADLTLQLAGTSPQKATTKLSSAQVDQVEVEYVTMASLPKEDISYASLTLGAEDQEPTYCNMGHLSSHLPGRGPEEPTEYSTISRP
As to the kind of experiment: flow cytometry, stable Freestyle HEK cells. As for the experimental part: as §1, §2
(In general: In flow cytometry, cells or beads pass a laser one at a time.)

B1: anti-CD300LB antibody CD-02 (antibody, V domains shown)
VH: QVQLQQPGAELVRPGSSVKLSCQASGYTFTNYWMHWVRQRPIQGLEWIGNIDPSDSETHYNQKFKDRATLTVDKSSSTAYMQLSSLTSEDSAVYYCARSGVYDDEGGDYWGQGTTLTVSS
VL: ENVLTQSPAIMSASPGEKVTMTCSASSSVSYIHWYQQKSSTSPKLWIYDTSKLASGVPGRFSGSGSGNSYSLTISSMETEDVATYYCFQGSGYPLTFGAGTKLELK
In the case of B1, the gMFI in test [1] is 108 gMFI; in test [2], -93 gMFI.

B2: anti-CD300LB antibody CD-06 (antibody, V domains shown)
VH: QVQLVQSGAEVKKPGASVKVSCKASGYTFTTYAVHWVRQAPGQGLEWMGIVNPNSGGTNYAQKFQGRVTMTRDTSTSTVYMELSSLRSEDTAVYYCARDIVPMNNFYNYYYGMDVWGQGTTVTVSS
VL: DIQMTQSPSSLSASVGDRVTITCRASQSISSYLNWYQQKPGKAPKLLIYATSTLQSGVPSRFSGSGSGTDFTLTISSLQPEDFATYYCQQSYRIPYTFGQGTKVEIK
With B2, the gMFI in test [1] was found to be 80900 gMFI. Also, in test [2], the binding result is “no binding” and the gMFI amounted to 886 gMFI.

B3: anti-CD300LB antibody CD-03 (antibody, V domains shown)
VH: EVQLQQSGPELVKPGASVKISCKASGYTFTDYYINWVRQSHGKSLECIGDINPNNGGTNYNQKFKGKATLTVDRSSNTAYMEFRSLTFDDSALYYCAAEGAYWGQGTLVTVSA
VL: not shown
Consider B3, for which the gMFI was 163000 gMFI in test [1] and 2090 gMFI in test [2]. Also, in test [2], the binding result is “no binding”.

B4: anti-CD300LB antibody CD-01 (antibody, V domains shown)
VH: RVQLQQSGAELVRPGASVTLSCKASGFTFTDFEMHWVKKTPVHGLEWIGAIDPESGNTAYNQKFRGKATLTADKSSSTAYMELRYLTSEDSAVYYCTPLISGADYWGQGTTLTVSS
VL: DVVMTQSPLSLPVSLGDQASISCRSSQSLVHSDGNTYLYWYLQKPGQSPKLLIYKVSNRFSGVPDRFSGSGSGTDFTFKISRVGAEDLGVYFCSQSTHVPWTFGGGTKLEII
As to B4, the gMFI in test [1] was 45 gMFI; in test [2], -26 gMFI.
